Laboratory results: article PMC1851384, “Involvement of maternal embryonic leucine zipper kinase (MELK) in mammary carcinogenesis through interaction with Bcl-G, a pro-apoptotic member of the Bcl-2 family” (Breast Cancer Research, 2007)

Target: T1, His-tagged wild-type MELK recombinant protein (human, UniProt Q14680-1 1-651)
T1 construct: pET21a usually adds a C-terminal His6 tag; also called WT-MELK; His-tagged WT-MELK; source: E. coli BL21 codon-plus (DE3) RIL, purified (Ni-NTA superflow, nondenaturing)
T1 sequence (Q14680 whole entry): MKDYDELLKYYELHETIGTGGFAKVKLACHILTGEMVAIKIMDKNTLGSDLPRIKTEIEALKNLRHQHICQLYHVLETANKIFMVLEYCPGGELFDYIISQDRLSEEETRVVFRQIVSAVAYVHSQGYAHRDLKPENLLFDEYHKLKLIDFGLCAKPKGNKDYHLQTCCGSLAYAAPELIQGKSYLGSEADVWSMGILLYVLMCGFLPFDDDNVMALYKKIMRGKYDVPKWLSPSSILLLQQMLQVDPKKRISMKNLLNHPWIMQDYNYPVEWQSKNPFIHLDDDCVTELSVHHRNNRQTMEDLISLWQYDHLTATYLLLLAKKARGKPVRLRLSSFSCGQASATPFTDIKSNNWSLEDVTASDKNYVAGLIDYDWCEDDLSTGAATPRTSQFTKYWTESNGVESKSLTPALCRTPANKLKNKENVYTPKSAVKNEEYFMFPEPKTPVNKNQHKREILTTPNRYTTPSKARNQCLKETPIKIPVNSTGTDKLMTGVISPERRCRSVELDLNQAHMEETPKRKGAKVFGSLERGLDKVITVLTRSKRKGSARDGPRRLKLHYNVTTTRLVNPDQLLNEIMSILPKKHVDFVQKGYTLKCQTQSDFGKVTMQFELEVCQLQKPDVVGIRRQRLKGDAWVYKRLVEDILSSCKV
Test: pull-down; in vitro binding assay: 10 ug His-tagged MELK held by anti-6XHis antibody on protein G Sepharose; 5 ug Bcl-GL recombinant protein in 500 ul binding buffer (50 mM Tris, 75 mM NaCl, 10 mM MgCl2, 1 mM DTT, 2% BSA, 100 uM ATP), 30 minutes at 4°C; blot with anti-Bcl-GL
Conditions: both partners purified

binding result: binds
B1: Bcl-GL recombinant protein (GST removed) (natural protein, human, UniProt Q9BZR8-1 1-327, looked up)
chain: MCSTSGCDLEEIPLDDDDLNTIEFKILAYYTRHHVFKSTPALFSPKLLRTRSLSQRGLGNCSANESWTEVSWPCRNSQSSEKAINLGKKKSSWKAFFGVVEKEDSQSTPAKVSAQGQRTLEYQDSHSQQWSRCLSNVEQCLEHEAVDPKVISIANRVAEIVYSWPPPQATQAGGFKSKEIFVTEGLSFQLQGHVPVASSSKKDEEEQILAKIVELLKYSGDQLERKLKKDKALMGHFQDGLSYSVFKTITDQVLMGVDPRGESEVKAQGFKAALVIDVTAKLTAIDNHPMNRVLGFGTKYLKENFSPWIQQHGGWEKILGISHEEVD
notes: source: E. coli BL21 codon-plus RIL, purified (Glutathione Sepharose 4B), GST removed with PreScission protease
